Here are results for 23 sequences from a protein production outcome set (Wang et al. 2014).
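Also: failed if final PepcDB status was selected cloned or expressed and not failed if soluble or beyond.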

This data set can be described thus: label from the status in PepcDB records.
“MKTKAKISSRWLRFRALLIDIFLIYIPILYLFYFLLGSKEAFLNNHFITTLCTFLFGLIQAIFLTKKAQSPGLKAYDLYLIDIKTGKKLSFLRILLRYVIFIISFGLLFGLFVSFVRKDRLNLHDILTQSCIATKSIKKG”: the protein production result is reported as “failed”.
As for “MRKHSDCMNFCAVDATKGICRLSKQMINLDDAACPEIKVMPKCKNCKNFVEANDEGIGKCVGLEKEDWVYSTLNAITCEGHVFNE”, the protein production entry is on record as “failed”.
As for “MRHDIRAPETFRRYCLPSRPRGCPLKTYVIGDVHGRADLLKALPSHIEENDPNGCGYRVIFLGDIIDRGPDSMKAMEMVVRELNQNPESRLILGNHEEFMLLFLDRPDKREIVFDHWMRNGGLAAAASYGLNVGGRYGRIEEAHESLLELLHRRQNHIDAMRRAASLINDGANVFVHAGLRPGVPFEQQTTKDLRTIRSGFLDNDFDFGAMVVHGHTVTSSGLPEIRRSRIALDTGAGAGGCLSMMMVDDDGARTFFQSGSAREVVKVELSQRPDEP”, the entry is “failed”; as for “YANEEKGLEIAQERKARDEGWGDSIATMEMILKNAQGESSTRLMRLKSLEVEGDGDKGLTIFDQPRDVTGTAFLNHSHTIGADDQWLYLPALKRVKRISSRNKSGPFMGSEFAYEDLSSFEIEKYRFNHLKDEKFNGQDVFVLEQIPTDKNSGYTKQVVWLDKAHYRPLKVEFYDRKGALLKTLTFANYKQYLDKYWRAHTMAMTNHQTGKSTELNTSDLRFQTGLEENDFNKNVLKRVK”, “failed”; as for “MEANSGGGGGAEGGRAVTGGGGGGGGSDVELVSKTLQVEHKLFYFDLKENPRGRYLKISEKTSATRSTIIVPSSGISWFLDLFNYYVNSEEHELFSKELQLDSKVFYFDIGENRRGRFLKVSEASVSRNRSTIIVPAGSSPDEGWAAFRNILAEIHEASGLFVMPNQKPSDGQEHLVDDVGAGFIPGHGSQQPSSSEHNVDRTIDSPGSDRSSIILPLSGLKQFHEVIGHFVEITKDKIEVLILLEDGNFQSSNHLNLATSSRLPDRGVQ”, “failed”.
With “MRPLARLRGRRVVPQRSAGELDAMAAAGAVVAAALRAIRAAAAPGTSSLSLDEIAESVIRESGATPSFLGYHGYPASICASINDRVVHGIPSTAEVLAPGDLVSIDCGAVLDGWHGDAAITFGVGALSDADEALSEATRESLQAGIAAMVVGNRLTDVAHAIETGTRAAELRYGRSFGIVAGYGGHGIGRQMHMDPFLPNEGAPGRGPLLAAGSVLAIEPMLTLGTTKTVVLDDKWTVTTADGSRAAHWEHTVAVTDDGPRILTLG”, the protein production result is on record as “failed”.
Consider “MVPTPKPVVDRMLELADVDETDVLYDLGSGDGRIVIRAARTHGARGVGIEIDPDLVKKARKNAKEAGVADLVEFRQGDLFEADISEATVVTLYLLPSVNQKLRPILFEQLSPGTPVVSHDFDMGRWAPDRTVDLEGDTVYRWTIPLEHHHHHH”, for which the protein production entry is “failed”.
As for “MLNTLIVGASGYAGAELVSYVNRHPHMTITALTVSAQSNDAGKLISDLHPQLKGIVDLPLQPMSDVRDFSADVDVVFLATAHEVSHDLAPQFLQAGCVVFDLSGAFRVNDRAFYEKYYGFTHQYPELLEQAVYGLAEWNVDKLNTANLIAVPGCYPTAAQLSLKPLIDGGLLDLTQWPVINATSGVSGAGRKAAISNSFCEVSLQPYGVFTHRHQPEIAVHLGAEVIFTPHLGNFPRGILETITCRLKAGVTHAQVADVLQKAYGDKPLVRLYDKGVPALKNVVGLPFCDIGFAVQGEHLIVVATEDNLLKGAAAQAVQCANIRFGFAETQSLI”, the entry is “not failed”; as for “MYAVPILNVYDFEVKKDKETSYKSATEDYVNKTMGVEQGVLGLFAATDERDKTTSYIVEIYNDYLAFSNHTKNQASKDFKAVIPQIAEGNLNSAEIDVQIAKDKKIEQNDNTFAVYTVIDVKPENDKEFAEIIKNIVETTFNEEGTLLVYLGTDRRNFNKWCLFEVYKDIDSYLNHRSAKYFKDYITQTKDMIAGKKRAELQVLKIENKGGLDYKKLY”, “not failed”; as for “MNAVHFGAGNIGRGFIGEILAKNGFHITFVDVNETIIQALKERKSYTIELADASHQQINVENVTGLNNMTEPEKVVEAIAEADLVTTAIGPNILPRIAELIAQGIDARAEANCQKPLDIIACENMIGGSTFLAEEVAKYLKNPAYAEQWIGFPDAAVDRIVPLQKHEDPLFVQVEPFCEWVIDDTNRKAKEIQLEGVHYVADLEPYIERKLFSVNTGHATVAYTGALLGYQTIDEAMQDALVVAQLKSVLQETGKLLVAKWNFDEQEHAAYIEKIIQRFQNKYISDAITRVARTPIRKLGAQERFIRPIRELQERNLVSPHLLAMIGIVFNYHDPEDEQSRQLQEMLDQESVDTVIAEVTGIEDPETVKNIKQNVERYARPQVA”, “failed”.
In the case of “MIQLRAISRGMICGLLLSQLWSCSSTPLEPTAIEVDALFDDSLFKPVTNIPSVEDIFSLPSSVAVDVKRTYDRYAISTKNPLAVHEWLASYINANQSNGHSDFRYQDNLTQTASETFEQRAGNCMSLVVMTSALADIFNIGTEFQDIAIEPVWDKQGDFYLINGHVNLRLLPAQSVHTVYVSTHAILVDFMPERALRGLAKVQINRQTLTAMFYNNMAAESLVEGDLDHAYALVKAGLKSGHFSPALNTLAVIYRHKGDEKRAEQVYRYALKFDPDDMTTLFNLAVILDNQGRLEEWAQIHKKLELARIRNPYYYYDMGEQAYDEHQYREALAWYQRAVDKADYRHEFFFGLSRTYWALGDEKRAKQNMEKALALSREAADKHRCQAKLQAMRQH”, the protein production result was “failed”.
For “MDHPFNQMRLKLTTELLLDLGSLKPEHIITPRIATDEELSLIHSYDYIQAIRRASHGILNLQEAKKYGLDGDDTLQFRRMHQHSARIVGGALNLADAIMDKSVKNGCHLGGGLHHSLPGRANGFCIYNDVAITIAYLIKHYNQRVLCIDTDAHHGDGTQWSFYTEDQALIYSIHETGKFLFPGSGHYTERGNEQGFGYTVNIPLEPYTEDSSYLEVFKQTIEPIIASFKPDIIVSVHGVDVHYLDPLTHMSCTLNTLYQIPYIIKSLADTYTNGKVMMFGGGGYNIWKVVPRAWSHVFLALEHHHHHH”, the protein production result is recorded as “not failed”.
As for “MRIVIAGGHGQIALRLERLLAARGDEVAGIVRKAEQADDLRAAGAEPVVLDLESASVEEVAERLRGADAAVFAAGAGPGSGVARKDTVDKAAAVLFADAAVRAGVRRFLIVSSMGADPGHQGDEIFDVYLRAKGEADAYVSSLDALDWTILRPGALTDDAGTGLVRLEAHTGRGPVPRDDVAAVLAELVDTPATNGLALELISGSAPVSVAVKSVAGN”, the protein production entry was “failed”.
In the case of “TAMRVSPHHPAPTPNPRASLNHSTAFNPQPQSQMQDTRQIQPSPPWSYDQSYQYLGSIASPSVHPATPISPGRASGMTTLSAELSSRLSTAPDLTAFSDPRQFPALPSISDP”, the protein production entry was “failed”.
As for “MSPVINHPVLGPAAPSLGWVPAPRYWLRRQRVLDHMRTLERGRLLEIGCGGGALLADLSRLGFDCRALETSPAARVVARAMNADTEGDKIVETAPADWRGSFDVVAAFEVLEHIDDDVGALRDWRDWLVDGGHILISVPADPRKFNAADEWAGHFRRYDKEDLHKVLKQAGFSVVSSETYGYPLANFLEYFRASAHQLMRKQWAHRSRDDATAQSGVNRSLDSKVWPLYSSALGVRALRLADSLQKRFRDNGRGNGLLVIGRRI”, the protein production entry is “failed”.
To “MSGFSMKRVSQMTALAMALGLACASSWAAELAKPLTLDQLQQQNGKAIDTRPSAFYNGWPQTLNGPSGHELAALNLSASWLDKMSTEQLNAWIKQHNLKTDAPVALYGNDKDVDAVKTRLQKAGLTHISILSDALSEPSRLQKLPHFEQLVYPQWLHDLQQGKEVTAKPAGDWKVIEAAWGAPKLYLISHIPGADYIDTNEVESEPLWNKVSDEQLKAMLAKHGIRHDTTVILYGRDVYAAARVAQIMLYAGVKDVRLLDGGWQTWSDAGLPVERGTPPKVKAEPDFGVKIPAQPQLMLDMEQARGLLHRQDASLVSIRSWPEFIGTTSGYSYIKPKGEIAGARWGHAGSDSTHMEDFHNPDGTMRSADDITAMWKAWNIKPEQQVSFYCGTGWRASETFMYARAMGWKNVSVYDGGWYEWSSDPKNPVATGERGPDSSK” belongs “failed”; to “MNTLRYFDFGAARPVLLLIARIAVVLIFIIFGFPKMMGFDGTVQYMASLGAPMPMLAAIIAVVMEVPAAILIVLGFFTRPLAVLFIFYTLGTAVIGHHYWDMTGDAVGPNMINFWKNVSIAGAFLLLAITGPGAISLDRR”, “failed”.
Consider “MNLLYVVLIGQILLFLIGAIYAMRQTKRTKDNMPLPLAIRLILSFSLTGSAIWIWLQDPSVEYSTWVALGMTLSTVGDLFMAGLIPIGHRLIGGMVTFALAHCFYVKAFLQTGISWNGFWIGLLVYGLFLIVGWFFFIRNDKQDKLFTIGALIYGLWVGGMACFAFALYYENTGIWWIPAFGGLLFVISDFIIGVTDIGGRKLKYEPLWIWFTYVAAQMCIVYVGL”, for which the protein production result is given as “failed”.
In the case of “MAIASSSPSSSSNVSVIPTGPQVFISFRGKELRKGFISFLVPALKKKNINVFIDEHEVRGKDLISLFRRIGESKIALVIFSEGYTESKWCLDELVQIKKCVDQKKIIAIPIFYKLDPAVVKGLKGKFGDKFRDLIERYHHEPERYQKWTEALTSVSRTFALCLPEHRLRFFNHKNCLFLVAQDTNDKSEKDFIRSIIKEVKKALSNISRERNGDREEIDDCFVVSERKLTTDMYDTPE”, the protein production result is reported as “failed”.
For “LFSDASGEQRLQKIIGQIKKDGSGKDYDCIIGLSGGVDSSYLAVKVKDLGLRPLVVHVDAGWNSELAVSNIEKIVKYCGFDLHTHVINWEEIRDLQLAYMKAAVANQDVPQDHAFFASMYHFAVKNNIKYILSGGNLATEAVFPDTWHG”, the protein production result is reported as “failed”.
In the case of “KLLAITSCPNGIAHTYMAAENLQKAADRLGVSIKVETQGGIGVENKLTEEEIREADAIIIAADRSVNKDRFIGKKLLSVGVQDGIRKPEELIQKALNGDIPVY”, the protein production entry was “not failed”.
Take “MEIHSSAAAEVFPVCRSLLGKLPAHSHNRSVAPTVCDYYPQIMKTYNSKMTTQHSSDIRNSQNISASFVTPHDAPVTSRKYVPKFNSNNHRIKTAAAFEKGSDIYHAVRPNYPNSVIELLNLSPNSRVLDIGCGTGKLTEQIAQQTSSVYALDPSKDMLDSFRSTLDIPSWQATAEQTAVSDSRFSTLTCAQTWHWVEPLAASAELDRISTDDAQLLLVWNTLDVSVPWVHRLSRIMHSGDTLAEGFIPHVAQPWELVSVLRGKHAQELYPDQIHTLAHTRSYWLRASEKTREKLTHNLSWYLTDHLELPSTSLVEIPYRFDAFLYKKALVKTQ”: the protein production entry was “failed”.
For “MESYSQRQDHELQALEAIYGSDFQDLRPDARGRVREPPEINLVLYPQGLAGEEVYVQVELRVKCPPTYPDVVPEIDLKNAKGLSNESVNLLKSHLEELAKKQCGEVMIFELAHHVQSFLSEHNK”, the protein production entry was “not failed”.
